T1: γc ectodomain (human, UniProt P31785 23-262, C-terminally biotinylated (staining reagent for yeast))
T1 sequence: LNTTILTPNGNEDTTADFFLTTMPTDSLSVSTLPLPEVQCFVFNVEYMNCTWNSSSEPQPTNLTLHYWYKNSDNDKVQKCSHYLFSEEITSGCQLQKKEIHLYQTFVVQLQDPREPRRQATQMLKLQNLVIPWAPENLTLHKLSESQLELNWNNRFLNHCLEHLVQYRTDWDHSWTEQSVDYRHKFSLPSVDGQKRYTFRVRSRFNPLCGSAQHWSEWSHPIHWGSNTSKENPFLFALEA


What was measured:
CD25 ectodomain = CD25 ectodomain (UniProt P01589)
γc ectodomain = target: T1, γc ectodomain; assay: crystal structure

Sequence of CD25 ectodomain (P01589 22-240): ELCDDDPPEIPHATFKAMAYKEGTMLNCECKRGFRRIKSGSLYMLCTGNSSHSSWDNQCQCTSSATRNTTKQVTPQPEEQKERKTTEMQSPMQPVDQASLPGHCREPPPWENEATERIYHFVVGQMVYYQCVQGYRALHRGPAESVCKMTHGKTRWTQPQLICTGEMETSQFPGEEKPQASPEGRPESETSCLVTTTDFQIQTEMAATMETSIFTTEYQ

Kd (CD25 ectodomain) [nM] | binding result (γc ectodomain) | Molecule
1400 | – | H9 F42A (from UniProt P60568 21-153) (designed binder)
6.6 | – | H9 super-2 (IL-2 superkine, second generation) (from UniProt P60568 21-153) (designed binder)
– | binds | IL-2Rβ ectodomain (receptor, C-terminally biotinylated (staining reagent for yeast)) AVNGTSQFTCFYNSRANISCVWSQDGALQDTSCQVHAWPDRRRWNQTCELLPVSQASWACNLILGAPDSQKLTTVDIVTLRVLCREGVRWRVMAIQDFKPFENLRLMAPISLQVVHVETHRCNISWEISQASHYFERHLEFEARTLSPGHTWEEAPLLTLKQKQEWICLETLTPDTQYEFQVRVKPLQGEFTTWSPWSQPLAFRTKPAALGKDT
